From patent US20210087296A1 (published 2021)

How the values were obtained:
[1] = target: T1, MMP-14 catalytic domain mutant F198A (human, UniProt P50281 114-287, limits assumed); experiment: competitive ELISA, mutant in solution against immobilised wild-type MMP-14
T1 construct: Position as printed
Method: (§1) Fab ELISA. Purified Fab was serially diluted in MMP-14-coated wells followed by incubation at ambient temperature for 1 hr. Bound Fabs were detected using the anti-Fab-HRP conjugate. The half-maximal effective concentration (EC₅₀) was calculated from a four-parametric logistic curve-fitting analysis.

[2] = target: T2, MMP-14 catalytic domain mutant T190A (human, UniProt P50281 114-287, limits assumed); experiment: as above
T2 construct: Position as printed
Method: as §1

[3] = target: T3, MMP-14 catalytic domain mutant N231A (human, UniProt P50281 114-287, limits assumed); experiment: as above
T3 construct: Position as printed
Method: as §1

[4] = target: T4, MMP-14 catalytic domain mutant Y203A (human, UniProt P50281 114-287, limits assumed); experiment: as above
T4 construct: Position as printed
Method: as §1

[5] = target: T5, MMP-14 catalytic domain mutant F204A (human, UniProt P50281 114-287, limits assumed); experiment: as above
T5 construct: Position as printed
Method: as §1

[6] = target: T6, matrix metalloproteinase-14 catalytic domain (cdMMP-14) (human, UniProt P50281 114-287, limits assumed, biotinylated with EZ-Link Sulfo-NHS-LC-Biotin for ELISA; amine-coupled to CM5 chip for SPR); experiment: ELISA, purified Fab titrated on immobilised biotin-cdMMP-14, anti-Fab-HRP
T6 construct: also called catalytic domain of MMP-14; wild-type MMP-14
Method: After labeling purified cdMMP-14 using EZ-Link Sulfo-NHS-LC biotinylation kit (Thermo Fisher), biotin-cdMMP-14 was incubated in a streptavidin coated ELISA plate (Thermo Scientific) blocked with biotin-BSA. After washing, 50 μL of 2 M Fabs were then added to the first well and serially diluted to ˜1 nM and incubated for 30 minutes at 4° C. After washing, the ELISA signals were developed by anti-Fab-HRP (Sigma) and TMB (Thermo Scientific). The color development reaction was stopped by addition of H₂SO₄, and the absorptions at 450 nm were measured.

| binding result [1] | binding result [2] | binding result [3] | binding result [4] | binding result [5] | EC50 [6] [nM] | Binder |
| --- | --- | --- | --- | --- | --- | --- |
| binds | binds | binds | binds | binds |  | Fab 3A2 (Fab, V domains shown, Synthetic human Fab from E. coli periplasm; also called R3C9; not shown: His tag at C-terminus of heavy chain) VH: EVQLVESGGGLVQPGGSLRLSCAASGFNLSSSSMHWVRQAPGKGLEWVASIYPSYSYTYYADSVKGRFTISADTSKNTAYLQMNSLRAEDTAVYYCARVKLQKDKSHQWIRNLVATPYGRYVMDYWGQGTLVTVSS VL: DIQMTQSPSSLSASVGDRVTITCRASQSVSSAVAWYQQKPGKAPKLLIYSASSLYSGVPSRFSGSRSGTDFTLTISSLQPEDFATYYCQQYGYPITFGQGTKVEIKR |
|  |  |  |  |  | 1.2 | Fab R2C14 (Fab, V domains shown, Fab) VH: EVQLVESGGGLVQPGGSLRLSCAASGFNIYSSSIHWVRQAPGKGLEWVASIYSYSGYTYYADSVKGRFTISADTSKNTAYLQMNSLRAEDTAVYYCARVSNRYNRSSASIAGLQLFRPYGMDYWGQGTLVTVSS VL: DIQMTQSPSSLSASVGDRVTITCRASQSVSSAVAWYQQKPGKAPKLLIYSASSLYSGVPSRFSGSRSGTDFTLTISSLQPEDFATYYCQQSSYSLITFGQGTKVEIKR |
